Series [1] in a line: Pharmacokinetics studies of PTH-1 derivatives in rats (single subcutaneous injection, LC-MS/MS, NCA). Type of series: in vivo. The note with it: in vivo, sc; rat, s.c. 8.6 μg/kg, summary of Table 3; read-out: peak times. The method, then:
PTH-1 and L6-GFA16-PTH-1 were injected subcutaneously with a single administration of 8.6 μg/kg, respectively. Animals in each group were collected blood at 0 min, 5 min, 15 min, 30 min, 1 h, 2 h, and 4 h after administration. […] Exposure time of drugs in vivo was prolonged and exposure doses were increased.

The conditions of series [2]: general background statement; cited from earlier work.
For series [3] the following is noted: subcutaneous administration or intramuscular injection, background statement; cited from earlier work.

Where a SMILES comes first, the peptide text is derived from it. The star is where a group is joined. X1 = O=C(O)CCCCCCCCCCCCCCC(=O)NC(CCC(=O)NCCOCCOCC(=O)NCCOCCOCC(=O)NCCn1cc(CCOC(=O)*)nn1)C(=O)O

As for `CC[C@H](C)[C@H](NC(=O)[C@H](CCC(=O)O)NC(=O)[C@H](CO)NC(=O)[C@@H](NC(=O)[C@@H](N)CO)C(C)C)C(=O)N[C@@H](CCC(N)=O)C(=O)N[C@@H](CC(C)C)C(=O)N[C@@H](CCSC)C(=O)N[C@@H](Cc1c[nH]cn1)C(=O)N[C@@H](CC(N)=O)C(=O)N[C@@H](CC(C)C)C(=O)NCC(=O)N[C@@H](CCCNC(=N)N)C(=O)N[C@@H](Cc1c[nH]cn1)C(=O)N[C@@H](CC(C)C)C(=O)N[C@@H](CC(N)=O)C(=O)N[C@@H](CO)C(=O)N[C@@H](CCSC)C(=O)N[C@@H](CCC(=O)O)C(=O)N[C@@H](CCCNC(=N)N)C(=O)N[C@H](C(=O)N[C@@H](CCC(=O)O)C(=O)N[C@@H](Cc1c[nH]c2ccccc12)C(=O)N[C@@H](CC(C)C)C(=O)N[C@@H](CCCNC(=N)N)C(=O)N[C@@H](CCCCNC(=O)OCCc1cn(CCNC(=O)COCCOCCNC(=O)COCCOCCNC(=O)CCC(NC(=O)CCCCCCCCCCCCCCC(=O)O)C(=O)O)nn1)C(=O)N[C@@H](CCCNC(=N)N)C(=O)N[C@@H](CC(C)C)C(=O)N[C@@H](CCC(N)=O)C(=O)N[C@@H](CC(=O)O)C(=O)N[C@H](C(=O)N[C@@H](Cc1c[nH]cn1)C(=O)N[C@@H](CC(N)=O)C(=O)N[C@@H](Cc1ccccc1)C(=O)O)C(C)C)C(C)C` (stereo partly drawn) [L6-GFA16-PTH] (H-SVSEIQLMHNLGRHLNSMERVEWLRK(X1)RLQDVHNF-OH), the Tmax in series [1] was ~1.6 h.
With “GLP-1: glucose-dependent incretin polypeptide hormone; reference substance of Table 2”, the “biological half-life in vivo” value in series [2] was 20 minutes.
For the molecule “PTH: parathyroid hormone; PTH-1 is the reference substance of Table 3 (SVSEIQLMHNLGRHLNSMERVEWLRKRLQDVHNF; Amino Acid Sequence of PTH)”, the half-life result in series [3] is given as “about 12 hours”.

Source of the values: patent publication US20220211857A1, “POLYPEPTIDE DERIVATIVE AND PREPARATION METHOD THEREOF” (NINGBO KUNPENG BIOTECH CO., LTD., priority 2019, published 2022).
